These results are taken from US20220002389A1.

In experiment [1] the target is HIV-1 BaL strain envelope protein (gp120) on BaL-infected CEM.NKR-CCR5 (NKR24) cells (HIV-1 BaL strain). Kind of experiment: cell-based or functional assay.
Experiment [2] has the same target. Kind of experiment: flow cytometry on BaL-infected NKR24 cells; antibody at 4 µg/mL. In general terms: In flow cytometry, cells or beads pass a laser one at a time.
Experiment [3] has the same target. Kind of experiment: flow cytometry on BaL-infected NKR24 cells; antibody at 20 µg/mL.
The target is the same in experiment [4]. Kind of experiment: flow cytometry on BaL-infected NKR24 cells; antibody at 0.8 µg/mL.
Experiment [5] shares this target. Kind of experiment: flow cytometry on BaL-infected NKR24 cells; antibody at 100 µg/mL.
For experiment [6] the target is unchanged. Nature of the experiment: flow cytometry on BaL-infected NKR24 cells; antibody at 0.16 µg/mL.
Experiment [7] has the same target. Kind of experiment: flow cytometry on BaL-infected NKR24 cells; antibody at 0.032 µg/mL.

B1: SW-1C10 (1C10 antibody produced in the cocoons of transgenic silkworms) (antibody, human IgG1, kappa, V domains shown)
VH: EVQLVESGGGVVQPGRSLRVSCVASGFMFSNYAMHWVRQTAGKGLEWVAIISNDGSDKYYADSVQGRFTVSRDNSQNTLFLQMSGLRPEDSGLYYCARDLDQTIPDLTAPAFEVWGQGTMVTVSS
VL: DIVMTQSPLSLAVTPGEPASISCRSSQSLLHSDGNNYLDWYLQKPGQSPQLLIYLTSNRASGVPDRFSGSGSGTDFTLKISRVEAEDVGVYFCMQSLQTWTFGQGTKVEIKR
modifications: N-glycans without core fucose (silkworm-produced)
Turning to B1, the IC50 (50% inhibitory concentration) of infection of TZM-bl cells by BaL virus, luciferase RLU; 'Dose at Y = 50' in experiment [1] amounted to 0.108 µg/mL. Also, the MFI in experiment [2] was 1440 MFI; in experiment [3], 1640 MFI; in experiment [4], 1260 MFI; in experiment [5] it was 1900 MFI; in experiment [6], 1080 MFI; in experiment [7], 779 MFI.

B2: 293A-1C10 (1C10 antibody of 293A origin) (antibody, human IgG1, kappa, V domains shown)
VH: B1 VH
VL: B1 VL
In experiment [1], B2 yielded an IC50 (50% inhibitory concentration) of infection of TZM-bl cells by BaL virus, luciferase RLU; 'Dose at Y = 50' of 0.133 µg/mL. The MFI in experiment [2] is 1530 MFI; in experiment [3], 1780 MFI; in experiment [4], 1290 MFI; in experiment [5], 1780 MFI; in experiment [6] it was 1210 MFI; in experiment [7], 983 MFI.
